Assay results reported in the supplement of paper PMC9112550, “Optimization of the antimicrobial peptide Bac7 by deep mutational scanning” (BMC Biology, 2022).

Tested on: Escherichia coli TOP10
Experiment: shrunken log2 fold change of peptide-encoding DNA abundance (4.5 h post-induction vs induction); higher = less antimicrobial activity (less host growth inhibition)
Settings: time post-induction: 4.5 h; library: site-saturation at positions 5, 18, 19, 20
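Further: peptides expressed intracellularly from a pBAD plasmid library in pooled LB shake-flask culture, induced with 0.3% L-arabinose, DNA abundance read by NGS, three biological replicates, DESeq2 with apeglm shrinkage.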

Row | Sequence | shrunken log2 fold change
1 | RRIRERPPRLPRPRPRPFWEPRP | -0.56
2 | RRIRQRPPRLPRPRPRPDMWPRP | 0.0275
3 | RRIRVRPPRLPRPRPRPDTEPRP | 0.0532
4 | RRIRARPPRLPRPRPRPEIYPRP | -0.0195
5 | RRIRMRPPRLPRPRPRPCSIPRP | -0.0306
6 | RRIRGRPPRLPRPRPRPPKRPRP | 0.701
7 | RRIRERPPRLPRPRPRPLDVPRP | -0.304
8 | RRIRMRPPRLPRPRPRPWSIPRP | -0.0237
9 | RRIRNRPPRLPRPRPRPPLLPRP | 0.125
10 | RRIRMRPPRLPRPRPRPLVWPRP | 0.955
11 | RRIRIRPPRLPRPRPRPKIMPRP | -0.549
12 | RRIRMRPPRLPRPRPRPNCIPRP | 0.11
13 | RRIRWRPPRLPRPRPRPADEPRP | 0.033
14 | RRIRGRPPRLPRPRPRPQDSPRP | 0.135
15 | RRIRPRPPRLPRPRPRPGSFPRP | 0.0277
16 | RRIRQRPPRLPRPRPRPFKPPRP | -0.0337
17 | RRIRSRPPRLPRPRPRPMTVPRP | -0.0124
18 | RRIRLRPPRLPRPRPRPAKAPRP | 0.271
19 | RRIRPRPPRLPRPRPRPYSIPRP | -0.0708
20 | RRIRVRPPRLPRPRPRPRGEPRP | 0.254
21 | RRIRCRPPRLPRPRPRPMMYPRP | -0.12
22 | RRIRNRPPRLPRPRPRPMAKPRP | 0.0197
23 | RRIRPRPPRLPRPRPRPQEMPRP | 0.0716
24 | RRIRTRPPRLPRPRPRPLQYPRP | -0.0374
25 | RRIRNRPPRLPRPRPRPERFPRP | 0.128

Row | Sequence | shrunken log2 fold change
26 | RRIRNRPPRLPRPRPRPPHFPRP | 0.0188
27 | RRIRPRPPRLPRPRPRPRVCPRP | 0.298
28 | RRIRSRPPRLPRPRPRPQLAPRP | 0.0789
29 | RRIRNRPPRLPRPRPRPYHAPRP | -0.0081
30 | RRIRGRPPRLPRPRPRPFLFPRP | 0.39
31 | RRIRDRPPRLPRPRPRPMPIPRP | 0.000679
32 | RRIRKRPPRLPRPRPRPTGWPRP | 1.44
33 | RRIRGRPPRLPRPRPRPSPVPRP | 0.585
34 | RRIRNRPPRLPRPRPRPHEYPRP | -0.048
35 | RRIRERPPRLPRPRPRPRNNPRP | -0.441
36 | RRIRCRPPRLPRPRPRPDYRPRP | -0.0343
37 | RRIRCRPPRLPRPRPRPQHWPRP | 0.102
38 | RRIRLRPPRLPRPRPRPTLTPRP | 0.26
39 | RRIRFRPPRLPRPRPRPYHQPRP | -0.963
40 | RRIRIRPPRLPRPRPRPDWRPRP | 0.194
41 | RRIRWRPPRLPRPRPRPKGYPRP | 0.0648
42 | RRIRRRPPRLPRPRPRPHCEPRP | -0.169
43 | RRIRFRPPRLPRPRPRPDSDPRP | -0.0137
44 | RRIRWRPPRLPRPRPRPGQMPRP | 0.0528
45 | RRIRMRPPRLPRPRPRPNQKPRP | 0.00203
46 | RRIRARPPRLPRPRPRPAYDPRP | 0.00165
47 | RRIRHRPPRLPRPRPRPSNYPRP | -0.28
48 | RRIRERPPRLPRPRPRPLFKPRP | -0.543
49 | RRIRNRPPRLPRPRPRPAEAPRP | 0.057
50 | RRIRNRPPRLPRPRPRPIGAPRP | 0.235

Row | Sequence | shrunken log2 fold change
51 | RRIRTRPPRLPRPRPRPSMGPRP | -0.22
52 | RRIRLRPPRLPRPRPRPQLFPRP | 0.131
53 | RRIRKRPPRLPRPRPRPYPIPRP | 0.11
54 | RRIRLRPPRLPRPRPRPILEPRP | -0.186
55 | RRIRERPPRLPRPRPRPGIIPRP | -0.0249
56 | RRIRARPPRLPRPRPRPKQMPRP | 0.439
57 | RRIRARPPRLPRPRPRPVQSPRP | 0.14
58 | RRIRMRPPRLPRPRPRPTHCPRP | 0.34
59 | RRIRVRPPRLPRPRPRPPSPPRP | 0.417
60 | RRIRHRPPRLPRPRPRPYVMPRP | 0.0288
61 | RRIRYRPPRLPRPRPRPWQQPRP | -0.273
62 | RRIRWRPPRLPRPRPRPRALPRP | 0.354
63 | RRIRLRPPRLPRPRPRPCDNPRP | -0.161
64 | RRIRCRPPRLPRPRPRPFFAPRP | 0.216
65 | RRIRQRPPRLPRPRPRPIVGPRP | 0.0288
66 | RRIRQRPPRLPRPRPRPCMWPRP | -0.148
67 | RRIRTRPPRLPRPRPRPNVTPRP | -0.182
68 | RRIRARPPRLPRPRPRPMEQPRP | 0.0309
69 | RRIRRRPPRLPRPRPRPTHHPRP | 0.8
70 | RRIRGRPPRLPRPRPRPGVCPRP | 0.892
71 | RRIRKRPPRLPRPRPRPTWKPRP | 0.107
72 | RRIRYRPPRLPRPRPRPGVYPRP | -0.0135
73 | RRIRTRPPRLPRPRPRPGMKPRP | -0.0344
74 | RRIRFRPPRLPRPRPRPTPGPRP | 0.677
75 | RRIRERPPRLPRPRPRPVGAPRP | 0.392

Row | Sequence | shrunken log2 fold change
76 | RRIRNRPPRLPRPRPRPNENPRP | 0.215
77 | RRIRDRPPRLPRPRPRPHRNPRP | -0.0138
78 | RRIRFRPPRLPRPRPRPRIAPRP | 0.214
79 | RRIRGRPPRLPRPRPRPWGAPRP | 0.444
80 | RRIRGRPPRLPRPRPRPCSIPRP | 0.0747
81 | RRIRCRPPRLPRPRPRPCTPPRP | -0.778
82 | RRIRVRPPRLPRPRPRPILRPRP | 0.0599
83 | RRIRWRPPRLPRPRPRPLFEPRP | 0.25
84 | RRIRKRPPRLPRPRPRPHCWPRP | 0.17
85 | RRIRERPPRLPRPRPRPGHMPRP | -0.247
86 | RRIRRRPPRLPRPRPRPKWPPRP | 0.141
87 | RRIRDRPPRLPRPRPRPGGTPRP | 0.454
88 | RRIRQRPPRLPRPRPRPQRKPRP | -0.058
89 | RRIRHRPPRLPRPRPRPKDSPRP | 0.0292
90 | RRIRVRPPRLPRPRPRPHYPPRP | -0.675
91 | RRIRKRPPRLPRPRPRPDRAPRP | 0.115
92 | RRIRSRPPRLPRPRPRPYSTPRP | -1.05
93 | RRIRIRPPRLPRPRPRPFLGPRP | 0.00585
94 | RRIRYRPPRLPRPRPRPGYMPRP | -0.716
95 | RRIRWRPPRLPRPRPRPNFLPRP | -0.308
96 | RRIRQRPPRLPRPRPRPYWCPRP | -0.164
97 | RRIRPRPPRLPRPRPRPRKDPRP | 0.173
98 | RRIRKRPPRLPRPRPRPALGPRP | 0.0812
99 | RRIRFRPPRLPRPRPRPNMDPRP | 1.48
100 | RRIRNRPPRLPRPRPRPICYPRP | -0.818

Row | Sequence | shrunken log2 fold change
101 | RRIRQRPPRLPRPRPRPSLYPRP | -0.233
102 | RRIRYRPPRLPRPRPRPKWRPRP | 0.0685
103 | RRIRQRPPRLPRPRPRPFPCPRP | 0.0349
104 | RRIRMRPPRLPRPRPRPVFWPRP | 0.884
105 | RRIRMRPPRLPRPRPRPDDPPRP | 1.6
106 | RRIRTRPPRLPRPRPRPDLYPRP | 0.0261
107 | RRIRERPPRLPRPRPRPSKVPRP | -0.365
108 | RRIRQRPPRLPRPRPRPNLMPRP | -0.196
109 | RRIRFRPPRLPRPRPRPHIMPRP | -0.709
110 | RRIRDRPPRLPRPRPRPFIVPRP | -0.193
111 | RRIRERPPRLPRPRPRPWVFPRP | -0.0105
112 | RRIRQRPPRLPRPRPRPCDMPRP | -0.129
113 | RRIRMRPPRLPRPRPRPLPKPRP | 1.11
114 | RRIRMRPPRLPRPRPRPILVPRP | 0.133
115 | RRIRSRPPRLPRPRPRPMWGPRP | -0.0451
116 | RRIRCRPPRLPRPRPRPLVWPRP | 0.207
117 | RRIRERPPRLPRPRPRPTVYPRP | -0.194
118 | RRIRARPPRLPRPRPRPDHTPRP | -0.155
119 | RRIRDRPPRLPRPRPRPMQHPRP | -0.00754
120 | RRIRTRPPRLPRPRPRPVRPPRP | 0.779
121 | RRIRMRPPRLPRPRPRPFAKPRP | 0.3
122 | RRIRIRPPRLPRPRPRPEARPRP | 0.312
123 | RRIRPRPPRLPRPRPRPRDQPRP | 0.0809
124 | RRIRMRPPRLPRPRPRPCRIPRP | -0.0476
125 | RRIRGRPPRLPRPRPRPHEYPRP | -0.325

Row | Sequence | shrunken log2 fold change
126 | RRIRSRPPRLPRPRPRPNMPPRP | -0.278
127 | RRIRPRPPRLPRPRPRPWASPRP | 0.0361
128 | RRIRNRPPRLPRPRPRPACVPRP | 0.0235
129 | RRIRKRPPRLPRPRPRPMTRPRP | 0.872
130 | RRIRTRPPRLPRPRPRPDAPPRP | 0.215
131 | RRIRKRPPRLPRPRPRPKLPPRP | 0.244
132 | RRIRDRPPRLPRPRPRPHVAPRP | -0.0272
133 | RRIRSRPPRLPRPRPRPSNTPRP | -0.748
134 | RRIRDRPPRLPRPRPRPEFMPRP | 0.419
135 | RRIRLRPPRLPRPRPRPMECPRP | -0.489
136 | RRIRQRPPRLPRPRPRPNVKPRP | 0.0117
137 | RRIRCRPPRLPRPRPRPKWRPRP | 0.422
138 | RRIRDRPPRLPRPRPRPKQLPRP | 0.217
139 | RRIRARPPRLPRPRPRPGNGPRP | 0.275
140 | RRIRARPPRLPRPRPRPCSGPRP | 0.0771
141 | RRIRMRPPRLPRPRPRPENLPRP | -0.00111
142 | RRIRSRPPRLPRPRPRPHDCPRP | -0.0708
143 | RRIRIRPPRLPRPRPRPPNPPRP | 0.765
144 | RRIRERPPRLPRPRPRPADLPRP | -0.175
145 | RRIRCRPPRLPRPRPRPRIRPRP | 0.0722
146 | RRIRQRPPRLPRPRPRPEWDPRP | 0.0586
147 | RRIRKRPPRLPRPRPRPDMIPRP | 0.013
148 | RRIRGRPPRLPRPRPRPRSAPRP | 1.31
149 | RRIRHRPPRLPRPRPRPNCEPRP | -0.0369
150 | RRIRYRPPRLPRPRPRPWEEPRP | -0.0122
